{
  "source": "paper PMC3425544",
  "about": "“The S100A10 Subunit of the Annexin A2 Heterotetramer Facilitates L2-Mediated Human Papillomavirus Infection” (PLoS ONE, 2012)",
  "key": {"[1]": {"tested_on": "A2t (annexin A2 heterotetramer)", "test": "EPR binding of L2 peptide to A2t", "design": "species or system human", "conditions": "scrambled competitor 5∶1 molar ratio", "description": "Next, we wanted to determine if there was a specific interaction between the L2_108–126 peptide and A2t using electron paramagnetic resonance (EPR) spectroscopy. EPR is a method of magnetic resonance spectroscopy measuring unpaired electrons whose underlying basic concepts are not unlike the more widely used technique of nuclear magnetic resonance (NMR) (reviewed in [43]). When coupled with site-directed paramagnetic-labeling, such as the attachment of a moiety with an unpaired electron to a cysteine residue, EPR can be used to obtain structural information within a small vicinity of the paramagnetic-label’s positions along the protein sequence. As a paramagnetic-label becomes locally constrained, such as when bound to another protein, its spectra will drastically change as visualized by a decrease in line amplitude and increased line-broadening. Therefore, EPR provides an in vitro biochemical method that measures protein-protein interactions by monitoring changes in the spectra recorded for a labeled protein in different experimental settings.\nFor our purposes, an N-terminal cysteine (with a 3 native aa spacer) contained in the L2_108–126 peptide (C-IVS-[…]) was paramagnetic-labeled (an unpaired-electron-containing small molecule was cross-linked via a disulfide bond to the peptide), and its spectra were analyzed after incubation with and without purified human recombinant A2t or controls. […]\nRecombinant annexin A2 was expressed in BL21(DE3) Escherichia coli cells and purified using reversible Ca^2+-dependent binding to negatively charged phospholipid vesicles followed by size exclusion chromatography. […] Concentrations of all proteins and peptides, including the A2t complex, were determined using bicinchoninic acid assays (Pierce Thermo Scientific, Rockford, IL) compared to measured absorbance of albumin standards at 562 nm. […]"}, "[2]": {"tested_on": "annexin A2", "test": "EPR binding of L2 peptide to annexin A2", "conditions": "scrambled competitor 5∶1", "description": "(§1) Recombinant annexin A2 was expressed in BL21(DE3) Escherichia coli cells and purified using reversible Ca^2+-dependent binding to negatively charged phospholipid vesicles followed by size exclusion chromatography. A pET23A vector containing the S100A10 sequence (a gift from Volker Gerke) was expressed in BL21(DE3) cells as previously described. Both proteins were stored at 4°C in 20 mM HEPES buffer at pH 7.4, containing 100 mM NaCl with the addition of 1 mM dithiothreitol. Concentrations of all proteins and peptides, including the A2t complex, were determined using bicinchoninic acid assays (Pierce Thermo Scientific, Rockford, IL) compared to measured absorbance of albumin standards at 562 nm. Purified annexin A2 and S100A10 were combined at a molar ratio of 1∶1 and concentrated to over 8 µg/µl. The mixture was incubated overnight at 4°C, and then loaded onto a superdex 200 10/300 GL (GE Healthcare USA) column equilibrated in the previously mentioned HEPES buffer. The eluted A2t peak was collected and subjected to peptide binding assays.\nThe L2_108–126 peptides used in our EPR studies were synthesized with a cysteine at the N-terminus, and followed by a spacer of 3 physiological amino acids (C-IVS) preceding the canonical L2_108–126 and L2 scrambled sequences (C-IVS-[…] and C-IVS-[…] respectively). Peptides were combined with 8× molar excess paramagnetic label (1-oxyl-2, 2, 5, 5-tetramethyl-Δ3-pyrroline-3-methyl) (R1) methanethiosulfonate (MTSL), (Toronto Research Chemicals, Canada) and left to react overnight at 4°C. Free label was removed by gel filtration (PD10 GE, United Kingdom). All peptides were solubilized into HEPES buffer. For competition assays, the scrambled peptide was non-paramagnetic labeled with an N-acetylated MTSL paramagnetic-label analog (1-acetyl-2,2,5,5- tetramethyl-Δ3-pyrroline-3-methyl) (R1′) at an 8× molar excess to emulate the paramagnetic label on control peptides. Binding interactions were examined by combining paramagnetically-labeled L2 peptide with A2t, BSA, ANXA2, or S100A10 (20 µM, 100 µM, 100 µM, 100 µM, and 100 µM respectively) in 10 µL volumes of the HEPES buffer, confined by glass capillaries, and measured at room temperature over a period of 24 hours using a Bruker EMX X-band EPR spectrometer. For the cysteine blocked S100A10, S100A10 was treated with R1′ and excess label was removed via gel filtration (see above) before the addition of paramagnetic labeled peptides. […] To quantify the amount of bound peptide spectra of all tested proteins in combination with the L2_108–126 or ScrL2 peptides were compared to the spectra of L2_108–126 or ScrL2 peptides alone in solution using a spectra analyzing software (EPR 130, University of California, Los Angeles). […]"}, "[3]": {"tested_on": "S100A10 subunit of A2t", "test": "EPR binding of L2 peptide to S100A10", "conditions": "EPR", "description": "as §1\nThe L2_108–126 peptides used in our EPR studies were synthesized with a cysteine at the N-terminus, and followed by a spacer of 3 physiological amino acids (C-IVS) preceding the canonical L2_108–126 and L2 scrambled sequences (C-IVS-[…] and C-IVS-[…] respectively). Peptides were combined with 8× molar excess paramagnetic label (1-oxyl-2, 2, 5, 5-tetramethyl-Δ3-pyrroline-3-methyl) (R1) methanethiosulfonate (MTSL), (Toronto Research Chemicals, Canada) and left to react overnight at 4°C. Free label was removed by gel filtration (PD10 GE, United Kingdom). All peptides were solubilized into HEPES buffer. For competition assays, the scrambled peptide was non-paramagnetic labeled with an N-acetylated MTSL paramagnetic-label analog (1-acetyl-2,2,5,5- tetramethyl-Δ3-pyrroline-3-methyl) (R1′) at an 8× molar excess to emulate the paramagnetic label on control peptides. Binding interactions were examined by combining paramagnetically-labeled L2 peptide with A2t, BSA, ANXA2, or S100A10 (20 µM, 100 µM, 100 µM, 100 µM, and 100 µM respectively) in 10 µL volumes of the HEPES buffer, confined by glass capillaries, and measured at room temperature over a period of 24 hours using a Bruker EMX X-band EPR spectrometer. For the cysteine blocked S100A10, S100A10 was treated with R1′ and excess label was removed via gel filtration (see above) before the addition of paramagnetic labeled peptides. The experiments were done in triplicate with measurements taken at 12 db, in 5 scan intervals. All spectra were normalized to the same number of scans. To quantify the amount of bound peptide spectra of all tested proteins in combination with the L2_108–126 or ScrL2 peptides were compared to the spectra of L2_108–126 or ScrL2 peptides alone in solution using a spectra analyzing software (EPR 130, University of California, Los Angeles). By subtracting the alone peptide spectra from that of the combined samples we derive the spectra of the bound spectra, and based on double integration, relate this spectra to a concentration of the peptide that bound to the target protein."}, "[4]": {"tested_on": "HPV16 infection of COS-1 cells", "conditions": "pre-incubation, compared to control peptides; ref [28]; cited from earlier work", "description": "Though the interaction between L1 and HSPG appears to be the primary initiator of epithelial cell infection, the electrostatic interaction to the negatively charged polysaccharides is generally thought to be non-specific, and may lead to a cascade of subsequent capsid conformational changes."}, "[5]": {"biological_target": "T1, annexin A2 heterotetramer (A2t), purified human recombinant (human, UniProt P07355 1-339; P60903 1-97)", "T1 construct": "also called A2t complex", "T1 sequence (P07355 whole entry, chain 1 of 2)": "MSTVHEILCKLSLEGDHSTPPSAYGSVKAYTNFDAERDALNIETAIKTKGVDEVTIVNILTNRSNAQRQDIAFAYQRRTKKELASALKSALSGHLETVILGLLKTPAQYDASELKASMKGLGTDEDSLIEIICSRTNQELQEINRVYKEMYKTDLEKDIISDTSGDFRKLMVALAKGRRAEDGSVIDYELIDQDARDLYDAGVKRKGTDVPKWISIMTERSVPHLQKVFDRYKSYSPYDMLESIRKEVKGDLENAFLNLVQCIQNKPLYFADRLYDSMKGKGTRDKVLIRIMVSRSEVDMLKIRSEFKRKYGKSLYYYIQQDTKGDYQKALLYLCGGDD", "T1 sequence (P60903 whole entry, chain 2 of 2)": "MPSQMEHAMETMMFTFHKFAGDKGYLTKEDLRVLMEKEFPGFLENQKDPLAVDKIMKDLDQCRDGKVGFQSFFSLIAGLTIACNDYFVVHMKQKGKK", "test": "electron paramagnetic resonance (EPR) spectroscopy", "conditions": "both partners purified"}, "[6]": {"biological_target": "T2, recombinant annexin A2 (human, UniProt P07355 1-339)", "T2 construct": "also called ANXA2; annexin A2 subunit", "T2 sequence (P07355 whole entry)": "as the sequence (P07355 whole entry, chain 1 of 2) above", "test": "electron paramagnetic resonance (EPR) spectroscopy", "conditions": "both partners purified"}, "[7]": {"biological_target": "T3, recombinant S100A10 (human, UniProt P60903 1-97)", "T3 construct": "also called S100A10 subunit; p11; source: E. coli BL21(DE3), pET23A vector, purified", "T3 sequence (P60903 whole entry)": "as the sequence (P60903 whole entry, chain 2 of 2) above", "test": "electron paramagnetic resonance (EPR) spectroscopy", "conditions": "both partners purified"}, "[8]": {"biological_target": "T1, annexin A2 heterotetramer (A2t), …", "test": "electron paramagnetic resonance (EPR) spectroscopy; paramagnetic-labeled peptide (20 µM) mixed with protein (100 µM) in 10 µL HEPES buffer (20 mM HEPES pH 7.4, 100 mM NaCl) in glass capillaries, room temperature; percent bound from subtraction of the free-peptide spectrum and double integration; 'relative' binding constant K = [AB]/[A][B]", "conditions": "both partners purified"}, "[9]": {"biological_target": "T2, recombinant annexin A2", "test": "electron paramagnetic resonance (EPR) spectroscopy; paramagnetic-labeled peptide (20 µM) mixed with protein (100 µM) in 10 µL HEPES buffer (20 mM HEPES pH 7.4, 100 mM NaCl) in glass capillaries, room temperature; percent bound from subtraction of the free-peptide spectrum and double integration; 'relative' binding constant K = [AB]/[A][B]", "conditions": "both partners purified"}, "[10]": {"biological_target": "T3, recombinant S100A10", "test": "electron paramagnetic resonance (EPR) spectroscopy; paramagnetic-labeled peptide (20 µM) mixed with protein (100 µM) in 10 µL HEPES buffer (20 mM HEPES pH 7.4, 100 mM NaCl) in glass capillaries, room temperature; percent bound from subtraction of the free-peptide spectrum and double integration; 'relative' binding constant K = [AB]/[A][B]", "conditions": "both partners purified"}, "[11]": {"biological_target": "T4, cysteine-blocked S100A10 (αCys-S100A10) (human, UniProt P60903 1-97)", "T4 construct": "source: E. coli BL21(DE3), purified, then treated with R1′ and gel filtered", "T4 sequence (P60903 whole entry)": "as the sequence (P60903 whole entry, chain 2 of 2) above", "test": "electron paramagnetic resonance (EPR) spectroscopy; paramagnetic-labeled peptide (20 µM) mixed with protein (100 µM) in 10 µL HEPES buffer (20 mM HEPES pH 7.4, 100 mM NaCl) in glass capillaries, room temperature; percent bound from subtraction of the free-peptide spectrum and double integration; 'relative' binding constant K = [AB]/[A][B]", "conditions": "both partners purified"}, "[12]": {"biological_target": "T1, annexin A2 heterotetramer (A2t), …", "test": "cell-based or functional assay"}},
  "note": "No end group written: not given here.",
  "data": [
    {"molecule": "C-IVS-IESPVSDTALGTPEIFVSA [ScrL2, scrambled version of the L2_108–126 peptide, reference compound]", "values": [
      {"measurement": "competition for L2_108–126 – A2t interaction", "setting": "[1]", "value": "No significant changes in spectra signal were observed"},
      {"measurement": "competition for L2 peptide – annexin A2 interaction", "setting": "[2]", "value": "partially competed off"},
      {"measurement": "relative % bound to cysteine-blocked S100A10", "setting": "[3]; S100A10 cysteine-blocked with R1′ (αCys-S100A10), paramagnetic-labeled peptide, mean of three separate experiments", "value": 6.3, "unit": "%"},
      {"measurement": "competition for L2 peptide – S100A10 interaction", "setting": "[3]; scrambled competitor 5∶1", "value": "minimally competed off"}
    ]},
    {"molecule": "L2_108–120: L2_108–120 peptide of ref 28 (LVEETSFIDAGAP; UniProt P03107 108-120, looked up, fragment)", "values": [
      {"measurement": "reduction of infection of COS-1 cells", "setting": "[4]", "value": "approximately 60%"}
    ]},
    {"molecule": "CIVSLVEETSFIDAGAPTSVPSI (also: paramagnetic label, site not given here, source: synthetic peptide (Synthetic Biomolecules or Biomer Technology), HPLC purified to >95%)", "note": "[HPV16 L2_(108–126) peptide, paramagnetic-labeled (C-IVS-LVEETSFIDAGAPTSVPSI)]", "values": [
      {"measurement": "percent of peptide bound with ScrL2 at 5:1", "setting": "[5]", "value": 75.8, "unit": "%"},
      {"measurement": "percent of peptide bound with ScrL2 at 5:1", "setting": "[6]", "value": 17.7, "unit": "%"},
      {"measurement": "percent of peptide bound with ScrL2 at 5:1", "setting": "[7]", "value": 91, "unit": "%"},
      {"measurement": "Ka", "setting": "[8]", "value": 100000, "unit": "M⁻¹"},
      {"measurement": "percent of peptide bound", "setting": "[8]", "value": 78, "unit": "%"},
      {"measurement": "percent of peptide bound", "setting": "[9]", "value": 23.6, "unit": "%"},
      {"measurement": "Ka", "setting": "[10]", "value": 150000, "unit": "M⁻¹"},
      {"measurement": "percent of peptide bound", "setting": "[10]", "value": 92.5, "unit": "%"},
      {"measurement": "percent of peptide bound", "setting": "[11]", "value": 73.1, "unit": "%"}
    ]},
    {"molecule": "HPV16 L1–L2(GGDD) mutant pseudovirions (complex, human papillomavirus type 16) chain 1: MSLWLPSEATVYLPPVPVSKVVSTDEYVARTNIYYHAGTSRLLAVGHPYFPIKKPNNNKILVPKVSGLQYRVFRIHLPDPNKFGFPDTSFYNPDTQRLVWACVGVEVGRGQPLGVGISGHPLLNKLDDTENASAYAANAGVDNRECISMDYKQTQLCLIGCKPPIGEHWGKGSPCTNVAVNPGDCPPLELINTVIQDGDMVDTGFGAMDFTTLQANKSEVPLDICTSICKYPDYIKMVSEPYGDSLFFYLRREQMFVRHLFNRAGAVGENVPDDLYIKGSGSTANLASSNYFPTPSGSMVTSDAQIFNKPYWLQRAQGHNNGICWGNQLFVTVVDTTRSTNMSLCAAISTSETTYKNTNFKEYLRHGEEYDLQFIFQLCKITLTADVMTYIHSMNSTILEDWNFGLQPPPGGTLEDTYRFVTSQAIACQKHTPPAPKEDPLKKYTFWEVNLKEKFSADLDQFPLGRKFLLQAGLKAKPKFTLGKRKATPTTSSTSTTAKRKKRKL chain 2: MRHKRSAKRTKRASATQLYKTCKQAGTCPPDIIPKVEGKTIAEQILQYGSMGVFFGGLGIGTGSGTGGRTGYIPLGTRPPTATDTLAPVRPPLTVDPVGPSDPSIVSGGDDTSFIDAGAPTSVPSIPPDVSGFSITTSTDTTPAILDINNTVTTVTTHNNPTFTDPSVLQPPTPAETGGHFTLSSSTISTHNYEEIPMDTFIVSTNPNTVTSSTPIPGSRPVARLGLYSRTTQQVKVVDPAFVTTPTKLITYDNPAYEGIDVDNTLYFSSNDNSINIAPDPDFLDIVALHRPALTSRRTGIRYSRIGNKQTLRTRSGKSIGAKVHYYYDLSTIDPAEEIELQTITPSTYTTTSHAASPTSINNGLYDIYADDFITDTSTTPVPSVPSTSLSGYIPANTTIPFGGAYNIPLVSGPDIPINITDQAPSLIPIVPGSPQYTIIADAGDFYLHPSYYMLRKRRKRLPYFFSDVSLAA", "values": [
      {"measurement": "pseudo-infection of HaCaT cells (percent GFP-positive, 48 h) by the mutant PsV against wild-type PsV", "setting": "[12]", "value": "> 10", "unit": "fold reduction"}
    ]}
  ]
}
